Among the data in patent US20130178394A1 (UNIVERSITY OF TOKYO, published 2013) are Kd values, retold here.

Bridge positions count the residues as written; N and C are the ends. Square brackets hold non-standard residues; d marks the D form. NMeF = CN[C@@H](Cc1ccccc1)C(=O)O; NMeS = CN[C@@H](CO)C(=O)O; Sar = CNCC(=O)O

For orientation: Kd means the free concentration of one partner at which half of the binding sites on the other are occupied at equilibrium, for simple one-to-one binding. Read a high Kd as weaker binding.

The assay has as its target T1, biotinylated Avi-His-GB1-E6AP-HECT domain (human, UniProt P06654 228-282; Q05086 495-852, limits assumed, biotin on the Avi tag).
T1 construct: domain: Protein GB1 domain;domain: HECT domain; also called C terminal domain of ubiquitin ligase E6AP
Briefly: SPR, BIACORE T100, Avi-His-GB1-E6AP-HECT on streptavidin chip, peptide as analyte. On the procedure:
The binding constant of MCP11 to E6AP-HECT was analyzed by a surface plasmon resonance using BIACORE T100.
A streptavidin sensor chip (SA chip certified) was used as a sensor chip, an Avi-His-GB1-E6AP-HECT was used as a ligand, and MCP11 was used as an analyte.
In general terms: In SPR one partner is held on a chip, and binding of the other changes the refractive index at the surface.

T1 sequence (P06654 228-282, tags or fused parts left off): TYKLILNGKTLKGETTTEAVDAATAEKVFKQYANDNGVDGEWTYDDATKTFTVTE

B1: MCP11, Cyclo(-Ac-DWCDVMeSGRMeFMeGYMeFPC)G-OH (chemically synthesized cyclic N-methyl peptide) (peptide)
peptide: {CH2CO}-[dW]CDV[NMeS]GR[NMeF][Sar]Y[NMeF]PCG-OH
modifications: thioether N-13
notes: The formula stands in the summary (h-0009)
Molecule B1 came in with a Kd of 0.5 nM.
